For the assay, the target named is RD1-MART1^HIGH Y93Fα, yeast displayed (human). Description: flow cytometry on cells.

“MART1/HLA-A2 monomer (from UniProt P61769 21-119) (peptide-MHC)” yielded a fold weaker binding than RD1-MART1^HIGH of 10 fold.

The values are drawn from article PMC4938795.
